From patent US20050043264

Experiments:
[1] = molecular target: T1, Drosophila Ena (overexpressed in BG2-c2 cells), Q8T4F7
T1 chain: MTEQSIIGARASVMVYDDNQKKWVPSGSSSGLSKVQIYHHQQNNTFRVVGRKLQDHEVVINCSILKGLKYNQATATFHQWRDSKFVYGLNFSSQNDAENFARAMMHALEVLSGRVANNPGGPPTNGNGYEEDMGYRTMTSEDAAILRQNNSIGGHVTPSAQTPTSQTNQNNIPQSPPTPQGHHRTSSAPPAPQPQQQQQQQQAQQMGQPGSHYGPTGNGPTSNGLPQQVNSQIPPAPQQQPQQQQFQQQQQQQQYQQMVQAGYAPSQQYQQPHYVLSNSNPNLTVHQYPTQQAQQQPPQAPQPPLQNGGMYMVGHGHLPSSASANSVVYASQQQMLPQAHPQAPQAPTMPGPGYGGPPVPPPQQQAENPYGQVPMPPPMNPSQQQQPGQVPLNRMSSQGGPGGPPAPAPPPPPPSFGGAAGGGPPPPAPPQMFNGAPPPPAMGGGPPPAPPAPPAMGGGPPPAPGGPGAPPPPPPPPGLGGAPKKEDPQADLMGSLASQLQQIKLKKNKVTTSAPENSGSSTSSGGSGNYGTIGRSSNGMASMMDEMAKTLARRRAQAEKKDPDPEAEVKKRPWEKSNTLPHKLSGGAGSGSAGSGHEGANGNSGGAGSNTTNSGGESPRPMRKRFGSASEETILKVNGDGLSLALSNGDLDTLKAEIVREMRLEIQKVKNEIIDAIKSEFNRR

[2] = molecular target: Drosophila Cdk5 (endogenous, BG2-c2 neuronal cells), P48609
Chain of Drosophila Cdk5 (endogenous, BG2-c2 neuronal cells), P48609 (P48609 whole entry): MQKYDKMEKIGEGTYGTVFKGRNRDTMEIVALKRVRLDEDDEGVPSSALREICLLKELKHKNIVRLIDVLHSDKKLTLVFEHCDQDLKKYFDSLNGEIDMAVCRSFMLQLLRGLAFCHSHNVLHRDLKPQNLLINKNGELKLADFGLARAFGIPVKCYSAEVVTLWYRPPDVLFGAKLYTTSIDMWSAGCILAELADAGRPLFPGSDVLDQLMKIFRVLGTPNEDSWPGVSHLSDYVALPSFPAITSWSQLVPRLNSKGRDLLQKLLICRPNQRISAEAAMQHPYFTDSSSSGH

B1: Drosophila Abl kinase (endogenous, BG2-c2 neuronal cells) (protein)
chain: MGAQQGKDRGAHSGGGGSGAPVSCIGLSSSPVASVSPHCISSSSGVSSAPLGGGSTLRGSRIKSSSSGVASGSGSGGGGGGSGSGLSQRSGGHKDARCNPTVGLNIFTEHNEALLQSRPLPHIPAGSTAASLLADAAELQQHQQDSGGLGLQGSSLGGGHSSTTSVFESAHRWTSKENLLAPGPEEDDPQLFVALYDFQAGGENQLSLKKGEQVRILSYNKSGEWCEAHSDSGNVGWVPSNYVTPLNSLEKHSWYHGPISRNAAEYLLSSGINGSFLVRESESSPGQRSISLRYEGRVYHYRISEDPDGKVFVTQEAKFNTLAELVHHHSVPHEGHGLITPLLYPAPKQNKPTVFPLSPEPDEWEICRTDIMMKHKLGGGQYGEVYEAVWKRYGNTVAVKTLKEDTMALKDFLEEAAIMKEMKHPNLVQLIGVCTREPPFYIITEFMSHGNLLDFLRSAGRETLDAVALLYMATQIASGMSYLESRNYIHRDLAARNCLVGDNKLVKVADFGLARLMRDDTYTAHAGAKFPIKWTAPEGLAYNKFSTKSDVWAFGVLLWEIATYGMSPYPAIDLTDVYHKLDKGYRMERPPGCPPEVYDLMRQCWQWDATDRPTFKSIHHALEHMFQESSITEAVEKQLNANATSASSSAPSTSGVATGGGATTTTAASGCASSSSATASLSLTPQMVKKGLPGGQALTPNAHHNDPHQQQASTPMSETGSTSTKLSTFSSQGKGNVQMRRTTNKQGKQAPAPPKRTSLLSSSRDSTYREEDPANARCNFIDDLSTNGLARDINSLTQRYDSETDPAADPDTDATGDSLEQSLSQVIAAPVTNKMQHSLHSGGGGGGIGPRSSQQHSSFKRPTGTPVMGNRGLETRQSKRSQLHSQAPGPGPPSTQPHHGNNGVVTSAHPITVGALDVMNVKQVVNRYGTLPKGARIGAYLDSLEDSSEAAPALPATAPSLPPANGHATPPAARLNPKASPIPPQQMIRSNSSGGVTMQNNAAASLNKLQRHRTTTEGTMMTFSSFRAGGSSSSPKRSASGVASGVQPALANLEFPPPPLDLPPPPEEFEGGPPPPPPAPESAVQAIQQHLHAQLPNNGNISNGNGTNNNDSSHNDVSNIAPSVEEASSRFGVSLRKREPSTDSCSSLGSPPEDLKEKLITEIKAAGKDTAPASHLANGSGIAVVDPVSLLVTELAESMNLPKPPPQQQQKLTNGNSTGSGFKAQLKKVEPKKMSAPMPKAEPANTIIDFKAHLRRVDKEKEPATPAPAPATVAVANNANCNTTGTLNRKEDGSKKFSQAMQKTEIKIDVTNSNVEADAGAAGEGDLGKRRSTGSINSLKKLWEQQPPAPDYATSTILQQQPSVVNGGGTPNAQLSPKYGMKSGAINTVGTLPAKLGNKQPPAAPPPPPPNCTTSNSSTTSISTSSRDCTSRQQASSTIKTSHSTQLFTDDEEQSHTEGLGSGGQGSADMTQSLYEQKPQIQQKPAVPHKPTKLTIYATPIAKLTEPASSASSTQISRESILELVGLLEGSLKHPVNAIAGSQWLQLSDKLNILHNSCVIFAENGAMPPHSKFQFRELVTRVEAQSQHLRSAGSKNVQDNERLVAEVGQSLRQISNALNR
Which “tyrosine-phosphorylation level of Ena” value [1] does the source give for B1 here?
Its value is “Ena phosphorylation levels were elevated by Aβ42 but reduced by STI571”.

What about the “Cdk5-Y15 phosphorylation (Cdk5-pY15) and Cdk5 kinase activity after STI571 or dsRNA-abl” value [2] of the same protein?
The value was “both the Cdk5-pY15 and kinase activity were diminished”.
